Experimental data taken from US20210261665A1 (TAYU HUAXIA BIOTECH MEDICAL GROUP, published 2021).
Residue numbers refer to the chain shown, from its start. Names may count otherwise.

Legend:
[1] = target: T1, human PD-1 on cells (human, UniProt Q15116 25-288); assay: cell-based or functional assay
[2] = target: T2, hPD-1 mIg fusion protein (human; mouse, UniProt Q15116 25-170); assay: SPR Biacore T100, hPD-1mIg immobilised by amine coupling, antibody as analyte
T2 construct: extracellular domain; not shown: CH2-CH3 domain of mouse IgG2a heavy chain (plasmid pmIgG)
T2 sequence (Q15116 25-170): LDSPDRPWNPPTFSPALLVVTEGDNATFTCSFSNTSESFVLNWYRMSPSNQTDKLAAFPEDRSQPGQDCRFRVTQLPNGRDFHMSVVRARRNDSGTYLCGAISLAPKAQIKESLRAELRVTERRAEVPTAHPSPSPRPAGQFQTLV
Method: Binding affinity and kinetics determination of the humanized antibodies: The binding affinity and kinetics of the humanized PD-1 mAbs interact with hPD-1 protein was assessed with Biacore T100 (GE Healthcare Life Sciences). […] Nine different concentrations were tested for each sample. Detailed binding kinetic parameters (association rate, Ka, dissociation rate, Kd, and affinity constant, KD) can be determined by full kinetic analysis.

[3] = target: T2, hPD-1 mIg fusion protein; assay: SPR Biacore T200, hPD-1 mIg immobilised at low level, antibody as analyte; reference pembrolizumab and nivolumab
Method: Antibody binding affinity and kinetics: The affinity and kinetics of theTY101 was analyzed using the Biacore T200 instrument (GE Healthcare Life Sciences) and compared with two commercial antibodies.

[4] = target: T3, cynomolgus monkey PD-1 on cells (cynomolgus monkey, UniProt B0LAJ3 25-288); assay: flow cytometry on CHOK1-cPD-1 cells
T3 construct: also called cPD-1; CHOK1-cPD-1
T3 sequence (B0LAJ3 entry or part of it limits assumed): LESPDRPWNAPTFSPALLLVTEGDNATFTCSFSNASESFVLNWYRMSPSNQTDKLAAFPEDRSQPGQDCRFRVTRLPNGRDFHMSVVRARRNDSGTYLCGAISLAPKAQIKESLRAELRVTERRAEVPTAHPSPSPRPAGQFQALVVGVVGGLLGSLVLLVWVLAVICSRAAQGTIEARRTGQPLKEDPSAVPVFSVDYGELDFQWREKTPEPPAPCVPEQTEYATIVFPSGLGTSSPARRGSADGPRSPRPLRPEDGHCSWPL

[5] = target: T1, human PD-1 on cells; assay: flow cytometry on CHOK1-hPD-1 cells
[6] = target: hPD-1 protein (ELISA coat) (human, UniProt Q15116 25-167, limits assumed); assay: ELISA against hPD-1 ECD-Fc protein (plate coat)
Chain of hPD-1 protein (ELISA coat) (Q15116 25-167 limits assumed): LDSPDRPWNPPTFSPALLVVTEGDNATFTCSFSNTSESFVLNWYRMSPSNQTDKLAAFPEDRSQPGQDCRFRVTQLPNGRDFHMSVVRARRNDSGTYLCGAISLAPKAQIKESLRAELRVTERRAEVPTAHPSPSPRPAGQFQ
Method: (§1) The bindings of the antibodies to hPD-1 and the cross-reactivity to mPD-1 proteins were tested by ELISA. A serial dilution of test antibodies were added to ELISA plates pre-coated with 1 μg/ml hPD-1 or mPD-1. HRP conjugated goat anti-human IgG or goat anti-mouse IgG antibody was then added, followed by the addition of substrate Tetramethylbenzidine (TMB) and quantification with a SpectraMax Plus 384 Microplate Reader (Molecular Device, LLC., Sunnyvale, Calif.) at 450 nm wavelength.

[7] = target: T4, mPD-1 protein (ELISA coat) (mouse, UniProt Q02242 25-167, limits assumed); assay: ELISA against mPD-1 ECD-Fc protein (plate coat)
T4 sequence (looked up): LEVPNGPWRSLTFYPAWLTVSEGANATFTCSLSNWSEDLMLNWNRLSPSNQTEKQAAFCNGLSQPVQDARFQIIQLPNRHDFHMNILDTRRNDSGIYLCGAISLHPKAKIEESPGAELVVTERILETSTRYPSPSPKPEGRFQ
Method: as §1

[8] = target: T1, human PD-1 on cells; assay: cell based RBA (flow cytometry): blocking of Biotin-hPD-L1 binding to CHOK1-hPD-1 cells
Method: (§2) The cells were then incubated with Alexa 488 labeled Streptavidin and analyzed using a FACSCanto II.

[9] = target: T1, human PD-1 on cells; assay: cell based RBA (flow cytometry): blocking of Biotin-hPD-L2 binding to CHOK1-hPD-1 cells
Method: as §2

[10] = target: T5, Biotin-hPD-1 (human, UniProt Q15116 25-167, limits assumed, biotin label, site not stated); assay: competitive ELISA: competitive Ab 15 µg/ml with Biotin-hPD-1; coating Ab Nivolumab 1 µg/ml
T5 sequence (Q15116 25-167 limits assumed): as the sequence (Q15116 25-167 limits assumed) above
Method: (§3) A serial dilution of competing antibodies and Biotin-hPD-1 were added to ELISA plates pre-coated with 1 μg/ml a test antibody. HRP conjugated streptavidin was then added, followed by the addition of substrate TMB and quantification with a SpectraMax Plus 384 Microplate Reader at 450 nm wavelength.

[11] = target: T5, Biotin-hPD-1; assay: competitive ELISA: competitive Ab 15 µg/ml with Biotin-hPD-1; coating Ab TY101-4G1 1 µg/ml
Method: as §3

[12] = target: T5, Biotin-hPD-1; assay: competitive ELISA: competitive Ab 15 µg/ml with Biotin-hPD-1; coating Ab TY101-01-09 1 µg/ml
Method: as §3

[13] = target: T5, Biotin-hPD-1; assay: competitive ELISA: competitive Ab 15 µg/ml with Biotin-hPD-1; coating Ab Pembrolizumab 1 µg/ml
Method: as §3

[14] = target: T5, Biotin-hPD-1; assay: competitive ELISA: competitive Ab 15 µg/ml with Biotin-hPD-1; coating Ab TY101-04-T3-05 1 µg/ml
Method: as §3

[15] = target: T6, Human PD-1 ECD protein (human, UniProt Q15116 25-170); assay: SPR, Biacore T200, hPD-1 ECD immobilised at the low level (60 RU), antibody as analyte, 1:1 fit [lower left]
T6 construct: extracellular domain; also called hPD-1; recombinant hPD-1
T6 sequence (Q15116 25-170): as the sequence (Q15116 25-170) above
Method: (§4) Human PD-1 ECD protein was immobilized on CMS sensor chip for different length of time to achieve low immobilization level (at 60 RU) in flow cell 3 and high immobilization level (960 RU) in flow cell 4. […] After signals of both the reference (flow cell 1) and the zero concentrations being subtracted from that of samples, binding kinetics was calculated using Biacore T200 evaluation software version 1.0 and a 1:1 binding model for curve fitting.

[16] = target: T6, Human PD-1 ECD protein; assay: SPR, Biacore T200, hPD-1 ECD immobilised at the high level (960 RU), antibody as analyte, 1:1 fit; kd and KD printed as '*', no visible dissociation over 1500 s [lower right]
Method: as §4

[17] = target: T1, human PD-1 on cells; assay: flow cytometry on CHO/hPD-1 cells, anti-mIgG-APC
Method: CHO/hPD-1 cells were incubated anti-PD-1 mAbs on ice. After incubation, the cells were washed and further incubated with anti-mIgG-APC (eBiosciences). Flow cytometry analysis was performed using a FACSVerse (BD Biosciences). […] These cells were also stained with their respective positive antibodies respectively as positive control.

T1 sequence (Q15116 25-288): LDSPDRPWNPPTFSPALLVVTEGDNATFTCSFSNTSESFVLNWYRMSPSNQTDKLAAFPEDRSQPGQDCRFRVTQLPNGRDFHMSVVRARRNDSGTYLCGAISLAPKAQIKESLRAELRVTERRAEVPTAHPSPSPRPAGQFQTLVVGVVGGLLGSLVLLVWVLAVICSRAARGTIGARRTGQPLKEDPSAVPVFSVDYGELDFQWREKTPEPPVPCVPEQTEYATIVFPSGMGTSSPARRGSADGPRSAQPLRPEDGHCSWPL

B1: Variant 3 (TY101) (antibody, V domains shown)
VH: EVQLVESGGGLVQPGGSLRLSCAASGFTFSSYTMSWVRQAPGKGLEWVSYISHGGGDTYYADSVKGRFTISRDNSKNTLYLQMNSLRAEDTAVYYCARHSGYERGYYYVMDYWGQGTLVTVSS
VL: DIQLTQSPDSLSVSLGERATINCKASESVDYYGFSFLNWFQQKPGQPPKLLIYAASNRQSGVPDRFSGSGSGTDFTLTISSLQAEDVAVYFCQQSKEVPWTFGQGTKLEIKR
notes: Humanized; VH variant a, VK variant c; Constant regions not spelled out; chimeric parent has human IgG4-S228P and human kappa; also called mutant combination 3
In the case of B1, the “EC50; luciferase RLU of Jurkat-PD1 cells stimulated with CHO-PD-L1 cells (PD-1/PD-L1 Blockade Bioassay)” value [1] is reported as 0.224 µg/mL, the Kd [2] is reported as 0.0963 nM and the koff [2] is reported as 2.33e-05 s⁻¹. For the same binder, the kon [2] was 242000 M⁻¹ s⁻¹ and the “fold slower dissociation rate Kd than the two commercial antibodies” value [3] was 10 fold.

B2: TY101-04-T3-05 (antibody, V domains shown)
VH: B1 VH
VL: B1 VL
notes: also called TY101 clone TY101-04-T3-05
In the case of B2, the EC50 [4] is reported as 1.19 nM, the “Max MFI” value [4] is reported as 22100 and the EC50 [5] is reported as 0.87 nM. The “Max MFI” value [5] was 23900, the EC50 [6] was 0.14 nM and the “Max OD450” value [6] was 3.03. For the same binder, the “Max OD450” value [7] was 0.92, the binding result [7] was “no binding (tested: 100 nM)” and the IC50 [8] was 1.3 nM. It also gave an Inhibition rate [8] of 99.5%, an IC50 [9] of 1.52 nM and an Inhibition rate [9] of 95.3%. The “Inhibition (%)” value [10] was 94%, the “Inhibition (%)” value [11] was 95% and the “Inhibition (%)” value [12] was 94%. The “Inhibition (%)” value [13] was 94%, the “Inhibition (%)” value [14] was 95% and the Kd [15] was 0.132 nM. It also gave a koff [15] of 1.89e-05 s⁻¹, a kon [15] of 143000 M⁻¹ s⁻¹ and a kon [16] of 210000 M⁻¹ s⁻¹.

B3: TY101-4G1 (antibody, V domains shown)
VH: B1 VH
VL: B1 VL
notes: also called TY101 clone TY101-4G1
For B3, the EC50 [4] was 1.46 nM, the “Max MFI” value [4] was 20700 and the EC50 [5] was 0.94 nM. For the same binder, the “Max MFI” value [5] was 23700, the EC50 [6] was 0.15 nM and the “Max OD450” value [6] was 3.01. The “Max OD450” value [7] was 1.33, the binding result [7] was “no binding (tested: 100 nM)” and the IC50 [8] was 1.47 nM. For the same binder, the Inhibition rate [8] was 99.5%, the IC50 [9] was 2.33 nM and the Inhibition rate [9] was 94.7%. For the same binder, the “Inhibition (%)” value [10] was 94%, the “Inhibition (%)” value [11] was 95% and the “Inhibition (%)” value [12] was 94%. The “Inhibition (%)” value [13] was 94% and the “Inhibition (%)” value [14] was 94%.

B4: TY101-01-09 (antibody, V domains shown)
VH: B1 VH
VL: B1 VL
notes: Compared with isotype control hIgG4; also called TY101 clone TY101-01-09
In the case of B4, the EC50 [4] is reported as 1.13 nM, the “Max MFI” value [4] is reported as 21100 and the EC50 [5] is reported as 0.78 nM. The “Max MFI” value [5] was 23200, the EC50 [6] was 0.13 nM and the “Max OD450” value [6] was 3.01. For the same binder, the “Max OD450” value [7] was 0.71, the binding result [7] was “no binding (tested: 100 nM)” and the IC50 [8] was 1.15 nM. For the same binder, the Inhibition rate [8] was 99.5%, the IC50 [9] was 1.76 nM and the Inhibition rate [9] was 95.4%. For the same binder, the “Inhibition (%)” value [10] was 93%, the “Inhibition (%)” value [11] was 95% and the “Inhibition (%)” value [12] was 94%. The “Inhibition (%)” value [13] was 93% and the “Inhibition (%)” value [14] was 94%.

B5: Murine Ab2 (antibody, mouse IgG1, V domains shown)
VH: QVQLQQSGAELARPGASVKMSCKASGYTFTSYTMHWVKQRPGQGLEWIGYINPTTGYTNYNQKFKDKATLTADKSSSTAYMQLSSLTSEDSAVYYCARDDAYYSGYWGQGTTLTVSS
VL: DIQMTQSPASLSVSVGETVTITCRASENIYSNLAWYRQKQGKSPQLLVYAAKNLADGVPSRFSGSGSGTQYSLKINSLQSEDFGSYYCQHFWGTPWTFGGGTKLEIKR
notes: also called anti-hPD-1 mAb 2
B5: binds [17].

B6: Variant 9 (antibody, V domains shown)
VH: B1 VH with Q3K, V5L, A61P, Q115K, L118T
VL: DIQLTQSPDSLSVSLGERATINCKASESVDYYGFSFLNWFQQKPGQPPKLLIYAASNRQSGVPDRFSGSGSGTDFTLTISSLQAEDVAVYFCQQSKEVPWTFGQGTKLEIK
notes: Humanized; VH variant c, VK variant c; Constant regions not spelled out; also called mutant combination 9
B6 was tested, and the Kd [2] was 0.123 nM, the koff [2] was 3.2e-05 s⁻¹ and the kon [2] was 259000 M⁻¹ s⁻¹.
